Patent publication US20110118177

Tests used:
[1] = tested on: cyanophycin (multi-L-arginyl-poly-[L-aspartic acid]), Cyanophycin Granule Polypeptide
[2] = target: bovine serum albumin (BSA) (Roth, Karlsruhe, Germany) (UniProt P02769)
[3] = tested on: bovine casein (Hammersten-grade) (Merck, Darmstadt, Germany)

Sequence of bovine serum albumin (BSA) (Roth, Karlsruhe, Germany) (P02769 25-607): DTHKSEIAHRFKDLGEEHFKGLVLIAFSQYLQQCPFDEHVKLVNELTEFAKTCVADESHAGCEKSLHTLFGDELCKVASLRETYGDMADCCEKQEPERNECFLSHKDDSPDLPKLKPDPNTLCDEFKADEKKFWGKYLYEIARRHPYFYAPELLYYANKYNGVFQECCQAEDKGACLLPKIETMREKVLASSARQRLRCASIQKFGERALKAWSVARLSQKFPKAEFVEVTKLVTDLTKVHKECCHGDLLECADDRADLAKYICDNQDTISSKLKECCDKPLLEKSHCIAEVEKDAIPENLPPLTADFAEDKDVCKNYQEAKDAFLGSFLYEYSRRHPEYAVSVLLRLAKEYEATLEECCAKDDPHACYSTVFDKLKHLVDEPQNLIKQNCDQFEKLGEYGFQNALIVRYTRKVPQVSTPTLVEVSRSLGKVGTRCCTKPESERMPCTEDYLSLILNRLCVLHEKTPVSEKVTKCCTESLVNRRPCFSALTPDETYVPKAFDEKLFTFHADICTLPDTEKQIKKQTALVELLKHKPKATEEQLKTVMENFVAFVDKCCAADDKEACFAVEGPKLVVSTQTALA

## extracellular cyanophycinase (CGPase) CphEal from Pseudomonas alcaligenes strain DIP1
[1]
  degradation activity (substrate specificity test): showed the highest degradation activity on CGP
[2]
  degradation (in comparison to CGP): also BSA was partially degraded (65% in comparison to CGP)
[3]
  degradation (substrate specificity test): Bovine casein and poly(aspartic acid) were minimally affected by the enzymatic activity of the purified CphEal
